Values of other authors, collected in paper PMC3791837.

Target: FcγRIIA (Homo sapiens) (UniProt P12318)
Assay: confocal analysis of transfected cells

UniProt P12318, sequence (P12318 34-217): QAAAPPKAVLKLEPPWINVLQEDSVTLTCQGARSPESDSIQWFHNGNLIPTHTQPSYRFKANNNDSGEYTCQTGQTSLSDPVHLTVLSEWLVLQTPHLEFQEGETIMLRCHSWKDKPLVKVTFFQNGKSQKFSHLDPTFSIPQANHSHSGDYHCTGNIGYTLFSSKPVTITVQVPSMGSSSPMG

- Kd: 3.7 µM
Substance: CRP (from UniProt P02741)
